For experiment [1], the target named is T1, MMP-14 (Homo sapiens, UniProt P50281). The experiment in a line: Selection and phage ELISA screening of anti-MMP-14 Fabs. Type of experiment: binding. Conditions: Fab from FAB310 phage display library. A digest of the protocol:
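Phage ELISA screened 95 clones from each of rounds 2 and 3 against biotinylated MMP-14 (1 μg/ml) captured on streptavidin, in TRIS/CaCl2/NaCl pH 7.5. The clones came from Fab library selections on biotinylated MMP-14, either free or TIMP-2-complexed (500 nM round 1, 100 nM later rounds). Elution used 2.5 μM TIMP-2 followed by TEA.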

For experiment [2], the target named is T1, MMP-14. The experiment in a line: IC50 for MMP-14 inhibition by Fabs and IgGs. Format: biochemical. The settings on record: Fab. The procedure: MMP-14 binding proteins can be characterized in assays that measure their modulatory activity toward MMP-14 or fragments thereof in vitro or in vivo. For example, MMP-14 can be combined with a substrate such as Mca-Pro-Leu-Ala-Cys(Mob)-Trp-Ala-Arg-Dap(Dnp)-NH2 under assay conditions permitting cleavage by MMP-14. The assay is performed in the absence of the MMP-14 binding protein, and in the presence of increasing concentrations of the MMP-14 binding protein. The concentration of binding protein at which 50% of the MMP-14 activity (e.g., binding to the substrate) is inhibited is the IC50 value (Inhibitory Concentration 50%) or EC50 (Effective Concentration 50%) value for that binding protein.

Experiment [3] addresses T2, MMP-16 (Homo sapiens, UniProt P51512). The experiment in a line: Cross-reactivity of Fabs and IgGs with MMP-16 (Example 8). Type of experiment: biochemical. More on the design: key to MMP-16 (cross-reactivity, class symbol): X: Does not inhibit MMP-16 at [I] = 100 nM level. Conditions: 5 nM MMP16, 30 minutes at 30° C., 10 μM substrate. The procedure: For the studies summarized in Tables 13 and 14, 100 nM anti-MMP-14 Fab/IgG were incubated with 5 nM MMP16 for 30 minutes at 30° C., 10 μM of substrate was added, and the MMP-16 activity was measured.

Experiment [4] concerns the target T2, MMP-16. The experiment in a line: Cross-reactivity of Fabs with MMP-16 (Example 9). Conditions: Fab, 100 nM final inhibitor concentration, 5 nM MMP-16. More on the design: key: X: Do not inhibit MMP-16 or MMP-24 at [I] = 100 nM level; Y: partially inhibit at [I] = 100 nM level. Type of experiment: biochemical. The procedure: (§1) For the studies summarized in Table 15, 1 μM of anti-MMP-14 Fab/IgG (100 nM final inhibitor concentration) were incubated with 5 nM of MMP-16 or 5 nM of MMP-24 for 30 minutes at 30° C., 10 μM of substrate was added, and the MMP-16 activity was measured.

In a further experiment the target is MMP-24 (Homo sapiens, UniProt Q9Y5R2). The experiment in a line: Cross-reactivity of Fabs with MMP-24 (Example 9). Format: biochemical. More on the design: key to MMP-24 (cross-reactivity, class symbol): X: Do not inhibit MMP-16 or MMP-24 at [I] = 100 nM level; Y: partially inhibit at [I] = 100 nM level. The settings on record: Fab, 100 nM final inhibitor concentration; 5 nM MMP-24. The procedure:
as §1

For experiment [5], the system named is Tumor Cells Expressing MMP-14 (HT-1080, LNCaP, MDA-MB-231, PC3). The experiment in a line: Binding of IgGs to tumor cells, immunocytochemistry and flow cytometry. Type of experiment: cell-based, human. The settings on record: ICC versus flow cytometry. The procedure:
The ability of twelve biotinylated-MMP-14 binding IgGs to bind to tumor cells expressing MMP-14 was evaluated using both immunocytochemistry (ICC) and flow cytometry. The cell lines tested were HT-1080 (a human fibrosarcoma cell line), LNCaP (human, prostate, carcinoma), MDA-MB-231 (human, breast, adenocarcinoma), or PC3 (Human prostatic cancer cells) cells. MMP-14 is expressed on HT-1080 cells (Cancer Res. (2005) 65(23):10959-69.). MMP-14 is expressed on PC-3 cells (Oncol Rep. (2006) 15(1):199-206). LNCaP express MMP-14 (Endocrinology (2003) 144(5):1656-1663) at a relatively low level. […] MMP-14 is expressed by MDA-MB-231 cells (Int J Cancer. (2005) 114(4):544-554.).
Cells (2×10^5) were cultivated on cell culture slides in complete medium. At confluency, cells were washed with PBS and fixed with 4% paraformaldehyde for 30 minutes at room temperature. Endogenous peroxidases were blocked with 3% hydrogen peroxide for 20 minutes. Nonspecific binding sites were blocked by incubation with 10% heat inactivated human serum 10% normal rabbit serum for 30 minutes at room temperature. Cells were then incubated with biotinylated or non-biotinylated MMP-14 binding proteins at 10 μg/ml for 2 hours at room temperature. […] Binding was detected with the substrate AEC+(25 minutes at room temperature in the dark). […]

T2 sequence (P51512 120-607): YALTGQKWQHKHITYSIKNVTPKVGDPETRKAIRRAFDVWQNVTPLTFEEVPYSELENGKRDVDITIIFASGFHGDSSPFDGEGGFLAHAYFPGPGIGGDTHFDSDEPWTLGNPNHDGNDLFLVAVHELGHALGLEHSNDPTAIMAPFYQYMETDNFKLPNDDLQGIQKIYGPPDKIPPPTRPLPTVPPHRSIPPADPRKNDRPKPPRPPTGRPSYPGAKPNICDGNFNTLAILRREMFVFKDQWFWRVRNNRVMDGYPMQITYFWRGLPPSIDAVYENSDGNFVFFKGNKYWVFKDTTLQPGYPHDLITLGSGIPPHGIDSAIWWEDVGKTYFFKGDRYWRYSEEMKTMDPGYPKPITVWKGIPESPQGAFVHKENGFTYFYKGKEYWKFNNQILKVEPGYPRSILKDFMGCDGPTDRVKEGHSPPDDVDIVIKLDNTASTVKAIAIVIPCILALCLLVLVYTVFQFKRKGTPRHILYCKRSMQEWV
Chain of MMP-24 (Q9Y5R2 156-645): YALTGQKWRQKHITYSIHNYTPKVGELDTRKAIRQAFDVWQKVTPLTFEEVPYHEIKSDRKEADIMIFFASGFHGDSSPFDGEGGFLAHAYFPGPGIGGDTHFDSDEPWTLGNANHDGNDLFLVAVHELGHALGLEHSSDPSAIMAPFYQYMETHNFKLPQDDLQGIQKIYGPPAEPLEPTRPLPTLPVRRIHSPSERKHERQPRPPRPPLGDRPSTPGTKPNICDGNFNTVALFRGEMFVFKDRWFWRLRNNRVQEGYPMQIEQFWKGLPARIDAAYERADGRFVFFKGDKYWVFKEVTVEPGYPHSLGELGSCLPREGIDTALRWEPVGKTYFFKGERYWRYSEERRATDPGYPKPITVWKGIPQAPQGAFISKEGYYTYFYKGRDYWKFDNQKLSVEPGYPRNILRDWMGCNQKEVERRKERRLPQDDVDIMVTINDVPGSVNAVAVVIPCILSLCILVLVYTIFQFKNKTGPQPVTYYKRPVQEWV

B1: M0038-F08: human antibody (Fab, IgG) that binds and inhibits MMP-14; HC SEQ ID NO: 158, LC SEQ ID NO: 159 (antibody, V domains shown)
VH: EVQLLESGGGLVQPGGSLRLSCAASGFTFSRYKMWWVRQAPGKGLEWVSGIRPSGGLTRYADSVKGRFTISRDNSKNTLYLQMNSLRAEDTAVYYCARRGDYVGGFDYWGQGTLVTVSS
VL: QDIQMTQSPGTLSLSPGERATLSCRASQSVSSSYLAWYQQKPGQAPRLLIYGASSRATGIPDRFSGSGSGTDFTLTISRLEPEDFAVYYCQHYGGSQAFGGGTKVEIK
modifications: Synthetically generated peptide
On to B1, for which, in the experiment with MMP-14 [1], the “bind to human MMP-14” value was “bind to human MMP-14”. Also, the “bind to and inhibit human MMP-14” value with MMP-14 [2] is “bind to and inhibit human MMP-14”. The “MMP-16 (cross-reactivity, class symbol)” value with MMP-16 [3] (Fab 100 nM), in the experiment with MMP-16 [3] (IgG 100 nM) and with MMP-16 [4] was “X” in each case. Further, in the experiment with MMP-24, the “MMP-24 (cross-reactivity, class symbol)” value is on record as “X”. In addition, in experiment [5], the “Staining, remark on method” value is “(only positive in immunocytochemistry, ICC)”.

The values above are taken from patent US8106168B2, “Metalloproteinase binding proteins” (Dyax Corp., priority 2005, dated 2012).
